Tests used:
[1] = biological target: T1, Recombinant Human DLL4 (delta-like protein 4) (human, UniProt Q9NR61 27-524); test: ELISA, DLL4-coated plate, 100 nM Fab
T1 construct: Bought recombinant human DLL4 (R&D Systems Cat#1506-D4/CF); also called rHuman DLL4

[2] = biological target: T1, Recombinant Human DLL4 (delta-like …); test: ECL (MSD) binding assay, immobilised DLL4, 10 nM Fab;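 further: fab binding read as electrochemiluminescence via a TAG-labelled detection antibody, 1 h incubations at 20 °C, antigen signal compared with each well's blank, ratio of at least 4 scored as binder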

| Binder | ELISA Signal [100 nM Fab] [1] | ECL Signal [10 nM Fab] [2] |
| --- | --- | --- |
| Fab VH5-51_IGHD5-18*01>3_IGHJ4*01 G100K/G104T & V3-4_IGLJ1*01 (Fab, V domains shown, Fab; expressed with CH1 (His and Flag tags) and lambda CL from the expression plasmids; also called H:KT & L:wt; KT double mutant) VH: EVQLVQSGAEVKKPGESLKISCKGSGYSFTSYWIGWVRQMPGKGLEWMGIIYPGDSDTRYSPSFQGQVTISADKSISTAYLQWSSLKASDTAMYYCARRKYSYTYDYFDYWGQGTLVTVSS VL: QTVVTQEPSFSVSPGGTVTLTCGLSSGSVSTSYYPSWYQQTPGQAPRTLIYSTNTRSSGVPDRFSGSILGNKAALTITGAQADDESDYYCVLYMGSGISYVFGTGTKVTVL | 0.01 | 42900 |
| Fab VH5-51_IGHD5-18*01>3_IGHJ4*01 G100K/G104T & V3-4_IGLJ1*01 V91C (Fab, V domains shown, Fab; expressed with CH1 (His and Flag tags) and lambda CL from the expression plasmids; also called H:KT & V91C) VH: EVQLVQSGAEVKKPGESLKISCKGSGYSFTSYWIGWVRQMPGKGLEWMGIIYPGDSDTRYSPSFQGQVTISADKSISTAYLQWSSLKASDTAMYYCARRKYSYTYDYFDYWGQGTLVTVSS VL: QTVVTQEPSFSVSPGGTVTLTCGLSSGSVSTSYYPSWYQQTPGQAPRTLIYSTNTRSSGVPDRFSGSILGNKAALTITGAQADDESDYYCCLYMGSGISYVFGTGTKVTVL | 0.02 | 38300 |
| Fab VH5-51_IGHD5-18*01>3_IGHJ4*01 G100K/G104T & V3-4_IGLJ1*01 V91G (Fab, V domains shown, Fab; expressed with CH1 (His and Flag tags) and lambda CL from the expression plasmids; also called H:KT & V91G) VH: EVQLVQSGAEVKKPGESLKISCKGSGYSFTSYWIGWVRQMPGKGLEWMGIIYPGDSDTRYSPSFQGQVTISADKSISTAYLQWSSLKASDTAMYYCARRKYSYTYDYFDYWGQGTLVTVSS VL: QTVVTQEPSFSVSPGGTVTLTCGLSSGSVSTSYYPSWYQQTPGQAPRTLIYSTNTRSSGVPDRFSGSILGNKAALTITGAQADDESDYYCGLYMGSGISYVFGTGTKVTVL | 0.01 | 45300 |
| Fab VH5-51_IGHD5-18*01>3_IGHJ4*01 G100K/G104T & V3-4_IGLJ1*01 M94R (Fab, V domains shown, Fab; expressed with CH1 (His and Flag tags) and lambda CL from the expression plasmids; also called H:KT & M94R) VH: EVQLVQSGAEVKKPGESLKISCKGSGYSFTSYWIGWVRQMPGKGLEWMGIIYPGDSDTRYSPSFQGQVTISADKSISTAYLQWSSLKASDTAMYYCARRKYSYTYDYFDYWGQGTLVTVSS VL: QTVVTQEPSFSVSPGGTVTLTCGLSSGSVSTSYYPSWYQQTPGQAPRTLIYSTNTRSSGVPDRFSGSILGNKAALTITGAQADDESDYYCVLYRGSGISYVFGTGTKVTVL | 0.01 | 77800 |
| Fab VH5-51_IGHD5-18*01>3_IGHJ4*01 G100K/G104T & V3-4_IGLJ1*01 S96G (Fab, V domains shown, Fab; expressed with CH1 (His and Flag tags) and lambda CL from the expression plasmids; also called H:KT & S96G) VH: EVQLVQSGAEVKKPGESLKISCKGSGYSFTSYWIGWVRQMPGKGLEWMGIIYPGDSDTRYSPSFQGQVTISADKSISTAYLQWSSLKASDTAMYYCARRKYSYTYDYFDYWGQGTLVTVSS VL: QTVVTQEPSFSVSPGGTVTLTCGLSSGSVSTSYYPSWYQQTPGQAPRTLIYSTNTRSSGVPDRFSGSILGNKAALTITGAQADDESDYYCVLYMGGGISYVFGTGTKVTVL | 0.01 | 40400 |
| Fab VH5-51_IGHD5-18*01>3_IGHJ4*01 G100K/G104T & V3-4_IGLJ1*01 M94F (Fab, V domains shown, Fab; expressed with CH1 (His and Flag tags) and lambda CL from the expression plasmids; also called H:KT & M94F) VH: EVQLVQSGAEVKKPGESLKISCKGSGYSFTSYWIGWVRQMPGKGLEWMGIIYPGDSDTRYSPSFQGQVTISADKSISTAYLQWSSLKASDTAMYYCARRKYSYTYDYFDYWGQGTLVTVSS VL: QTVVTQEPSFSVSPGGTVTLTCGLSSGSVSTSYYPSWYQQTPGQAPRTLIYSTNTRSSGVPDRFSGSILGNKAALTITGAQADDESDYYCVLYFGSGISYVFGTGTKVTVL | 0.01 | 26300 |
| Fab VH5-51_IGHD5-18*01>3_IGHJ4*01 G100K/G104T & V3-4_IGLJ1*01 M94L (Fab, V domains shown, Fab; expressed with CH1 (His and Flag tags) and lambda CL from the expression plasmids; also called H:KT & M94L) VH: EVQLVQSGAEVKKPGESLKISCKGSGYSFTSYWIGWVRQMPGKGLEWMGIIYPGDSDTRYSPSFQGQVTISADKSISTAYLQWSSLKASDTAMYYCARRKYSYTYDYFDYWGQGTLVTVSS VL: QTVVTQEPSFSVSPGGTVTLTCGLSSGSVSTSYYPSWYQQTPGQAPRTLIYSTNTRSSGVPDRFSGSILGNKAALTITGAQADDESDYYCVLYLGSGISYVFGTGTKVTVL | 0.02 | 46800 |
| Fab VH5-51_IGHD5-18*01>3_IGHJ4*01 G100K/G104T & V3-4_IGLJ1*01 M94N (Fab, V domains shown, Fab; expressed with CH1 (His and Flag tags) and lambda CL from the expression plasmids; also called H:KT & M94N) VH: EVQLVQSGAEVKKPGESLKISCKGSGYSFTSYWIGWVRQMPGKGLEWMGIIYPGDSDTRYSPSFQGQVTISADKSISTAYLQWSSLKASDTAMYYCARRKYSYTYDYFDYWGQGTLVTVSS VL: QTVVTQEPSFSVSPGGTVTLTCGLSSGSVSTSYYPSWYQQTPGQAPRTLIYSTNTRSSGVPDRFSGSILGNKAALTITGAQADDESDYYCVLYNGSGISYVFGTGTKVTVL | 0.01 | 51300 |
| Fab VH5-51_IGHD5-18*01>3_IGHJ4*01 G100K/G104T & V3-4_IGLJ1*01 M94T (Fab, V domains shown, Fab; expressed with CH1 (His and Flag tags) and lambda CL from the expression plasmids; also called H:KT & M94T) VH: EVQLVQSGAEVKKPGESLKISCKGSGYSFTSYWIGWVRQMPGKGLEWMGIIYPGDSDTRYSPSFQGQVTISADKSISTAYLQWSSLKASDTAMYYCARRKYSYTYDYFDYWGQGTLVTVSS VL: QTVVTQEPSFSVSPGGTVTLTCGLSSGSVSTSYYPSWYQQTPGQAPRTLIYSTNTRSSGVPDRFSGSILGNKAALTITGAQADDESDYYCVLYTGSGISYVFGTGTKVTVL | 0.02 | 43000 |

Source: patent US20120316071A1 (published 2012)
